Changes are numbered by the printed parent chain. Numbers in names are those of the source.
B1: reovirus nonstructural protein σNS, wild type, in vitro expressed (natural protein)
chain: MASSLRAAISKIKRDDVGQQVCPNYVMLRSSVTTKVVRNVVEYQIRTGGFFSCLAMLRPLQYAKRERLLGQRNLERISTRDILQTRDLHSLCMPTPDAPMSNHQASTMRELICSYFKVDHADGLKYIPMDERYSPSSLARLFTMGMAGLHITTEPSYKRVPIMHLAADLDCMTLALPYMITLDGDTVVPVAPTLSAEQLLDDGLKGLACMDISYGCEVDANSRPAGDQSMDSSRCINELYCEETAEAICVLKTCLVLNCMQFKLEMDDLAHNAAELDKIQMMIPFSERVFRMASSFATIDAQCFRFCVMMKDKNLKIDMRETTRLWTRSASDDSVATSSLSISLDRGRWVAADASDARLLVFPIRV
modifications: [35S]methionine-labelled
notes: nonstructural protein σNS of mammalian orthoreovirus (reovirus) strain T3D, S3 gene; same plasmid as m1, expressed in reticulocyte lysate; also called WT σNS; source: in vitro translated (TNT T7 polymerase-coupled rabbit reticulocyte lysate), not purified
B2: σNS R38A, in vitro expressed (natural protein)
chain: B1 chain with R38A
modifications: [35S]methionine-labelled
notes: nonstructural protein σNS of mammalian orthoreovirus (reovirus) strain T3D, S3 gene; same plasmid as m9; also called R38A σNS; source: in vitro translated (TNT T7 polymerase-coupled rabbit reticulocyte lysate), not purified
B3: σNS K35A, in vitro expressed (natural protein)
chain: B1 chain with K35A
modifications: [35S]methionine-labelled
notes: nonstructural protein σNS of mammalian orthoreovirus (reovirus) strain T3D, S3 gene; same plasmid as m8; also called K35A σNS; source: in vitro translated (TNT T7 polymerase-coupled rabbit reticulocyte lysate), not purified
B4: σNS R6A, in vitro expressed (natural protein)
chain: B1 chain with R6A
modifications: [35S]methionine-labelled
notes: nonstructural protein σNS of mammalian orthoreovirus (reovirus) strain T3D, S3 gene; same plasmid as m2; also called R6A σNS; source: in vitro translated (TNT T7 polymerase-coupled rabbit reticulocyte lysate), not purified
B5: σNS R14A, in vitro expressed (natural protein)
chain: B1 chain with R14A
modifications: [35S]methionine-labelled
notes: nonstructural protein σNS of mammalian orthoreovirus (reovirus) strain T3D, S3 gene; same plasmid as m4; also called R14A σNS; source: in vitro translated (TNT T7 polymerase-coupled rabbit reticulocyte lysate), not purified
B6: σNS Y25A, in vitro expressed (natural protein)
chain: B1 chain with Y25A
modifications: [35S]methionine-labelled
notes: nonstructural protein σNS of mammalian orthoreovirus (reovirus) strain T3D, S3 gene; same plasmid as m6; also called Y25A σNS; source: in vitro translated (TNT T7 polymerase-coupled rabbit reticulocyte lysate), not purified
B7: σNS TriA (K11A, K13A, and R14A), in vitro expressed (natural protein)
chain: B1 chain with K11A, K13A, R14A
modifications: [35S]methionine-labelled
notes: nonstructural protein σNS of mammalian orthoreovirus (reovirus) strain T3D, S3 gene; same plasmid as m5; also called TriA σNS; source: in vitro translated (TNT T7 polymerase-coupled rabbit reticulocyte lysate), not purified
B8: σNS K11A, in vitro expressed (natural protein)
chain: B1 chain with K11A
modifications: [35S]methionine-labelled
notes: nonstructural protein σNS of mammalian orthoreovirus (reovirus) strain T3D, S3 gene; same plasmid as m3; also called K11A σNS; source: in vitro translated (TNT T7 polymerase-coupled rabbit reticulocyte lysate), not purified
B9: σNS R29A, in vitro expressed (natural protein)
chain: B1 chain with R29A
modifications: [35S]methionine-labelled
notes: nonstructural protein σNS of mammalian orthoreovirus (reovirus) strain T3D, S3 gene; same plasmid as m7; also called R29A σNS; source: in vitro translated (TNT T7 polymerase-coupled rabbit reticulocyte lysate), not purified

Columns and labels:
[1] = molecular target: the molecule itself; assay: native gel or EMSA; 35S-labelled σNS expressed in rabbit reticulocyte lysate, incubated with 10 μg RNase A at 37°C for 1 h; blue native PAGE, 4-16% bis-Tris, 4°C; autoradiography
[2] = molecular target: the molecule itself; assay: native gel or EMSA; 35S-labelled σNS expressed in rabbit reticulocyte lysate, incubated without RNase A (125 mM NaCl) at 37°C for 1 h; blue native PAGE, 4-16% bis-Tris, 4°C; autoradiography; RNA of the lysate present, the ladders of oligomers are RNA-dependent

| Protein | stoichiometry N [1] | stoichiometry N [2] |
| --- | --- | --- |
| B1 | 2 | ≥ 6 |
| B2 | – | 2 |
| B3 | – | 2 |
| B4 | – | 2 |
| B5 | – | 2 |
| B6 | – | 2 |
| B7 | – | 2 |
| B8 | – | 2 |
| B9 | – | 2 |
